For one substance, Kd results are on record in publication PMC11257959.

The subject of the series is NG-RYBP R47A/R53A/R56A (Homo sapiens). The experiment in a line: EMSA. Particulars: apparent Kd, n=3; value assigned by fourfold loss; H2A K119 monoubiquitinated histone; DNA unmodified; EMSA: 25 mM Tris-HCl pH 7.5, 50 mM NaCl, 0.05% Tween 20, 5 mM MgCl2, 4% glycerol, 0.2 nM nucleosome, 10 min on ice, 1% agarose 0.4x TBE; cryo-EM binding: 50 mM ….

As for NucH2Aub1 (EMSA, 201 bp 601), the Kd worked out at 10 nM.
